Assay results taken from patent publication US20180155451A1 (published 2018).
Like-named read-outs stand apart in the source and are kept apart here.

B1: GpH7-TA7/GpH7-B78/GpL16-k0 (antibody, human IgG1, kappa)
heavy 1: QVQLVQSGAEVKKPGASVTVSCKASGYTFTDYEMHWIRQPPGEGLEWIGAIDPKTGDTAYSESFQDRVTLTADKSTSTAYMELSSLTSEDTAVYYCTRFYSYTYWGQGTLVTVSSASTKGPSVFPLAPSSKSTSGGTAALGCLVKDYFPEPVTVSWNSGALTSGVHTFPAVLQSSGLYSLSSVVTVPSSSLGTQTYICNVNHKPSNTKVDKKVEPKSCDKTHTCPPCPAPEYLWGPSVFLFPPKPKDTLMISRTPEVTCVVVDVSHEDPEVKFNWYVDGVEVHNAKTKPREEQYNATYRVVSVLTVLHQDWLNGKEYKCKVSNKALPAPIEKTISKAKGQPREPQVYTLPPSRKELTKNQVSLTCLVKGFYPSDIAVEWESNGQPENNYKTTPPVLDSDGSFFLYSKLTVDKSRWQQGNVFSCSVMHEALHNRYTQKSLSLSP
heavy 2: QVQLVQSGAEVKKPGASVTVSCKASGYTFTDYEMHWIRQPPGEGLEWIGAIDPKTGDTAYSESFQDRVTLTADKSTSTAYMELSSLTSEDTAVYYCTRFYSYTYWGQGTLVTVSSASTKGPSVFPLAPSSKSTSGGTAALGCLVKDYFPEPVTVSWNSGALTSGVHTFPAVLQSSGLYSLSSVVTVPSSSLGTQTYICNVNHKPSNTKVDKKVEPKSCDKTHTCPPCPAPELLGGPDVFLFPPKPKDTLMISRTPEVTCVVVDVSHEDPEVKFNWYVDGVEVHNAKTKPREEQYNSTYRVVSVLTVLHQDWLNGKEYKCKVSNKALPLPEEKTISKAKGQPREPQVYTLPPSRDELTKNQVSLTCLVKGFYPSDIAVEWESNGQPENNYKTTPPVLDSDGSFFLYSKLTVDKSRWQQGNVFSCSVMHEALHNHYTQESLSLSP
light: DIVMTQSPLSLPVTPGEPASISCQASESLVHSNRNTYLHWYLQKPGQSPQLLIYKVSNRFSGVPDRFSGSGSGTDFTLKISRVEAEDVGVYYCSQNTHVPPTFGQGTKVEIERTVAAPSVFIFPPSDEQLKSGTASVVCLLNNFYPREAKVQWKVDNALQSGNSQESVTEQDSKDSTYSLSSTLTLSKADYEKHKVYACEVTHQGLSSPVTKSFNRGEC
notes: Heterodimerized anti-glypican-3 IgG1 variant: L234Y/G236W/S298A in one H chain, S239D/A330L/I332E in the other
B2: GpH7-TA22/GpH7-B78/GpL16-k0 (antibody, human IgG1, kappa)
heavy 1: QVQLVQSGAEVKKPGASVTVSCKASGYTFTDYEMHWIRQPPGEGLEWIGAIDPKTGDTAYSESFQDRVTLTADKSTSTAYMELSSLTSEDTAVYYCTRFYSYTYWGQGTLVTVSSASTKGPSVFPLAPSSKSTSGGTAALGCLVKDYFPEPVTVSWNSGALTSGVHTFPAVLQSSGLYSLSSVVTVPSSSLGTQTYICNVNHKPSNTKVDKKVEPKSCDKTHTCPPCPAPEYLWGPDVFLFPPKPKDTLMISRTPEVTCVVVDVSHEDPEVKFNWYVDGVEVHNAKTKPREEQYNATYRVVSVLTVLHQDWLNGKEYKCKVSNKALPAPIEKTISKAKGQPREPQVYTLPPSRKELTKNQVSLTCLVKGFYPSDIAVEWESNGQPENNYKTTPPVLDSDGSFFLYSKLTVDKSRWQQGNVFSCSVMHEALHNRYTQKSLSLSP
heavy 2: QVQLVQSGAEVKKPGASVTVSCKASGYTFTDYEMHWIRQPPGEGLEWIGAIDPKTGDTAYSESFQDRVTLTADKSTSTAYMELSSLTSEDTAVYYCTRFYSYTYWGQGTLVTVSSASTKGPSVFPLAPSSKSTSGGTAALGCLVKDYFPEPVTVSWNSGALTSGVHTFPAVLQSSGLYSLSSVVTVPSSSLGTQTYICNVNHKPSNTKVDKKVEPKSCDKTHTCPPCPAPELLGGPDVFLFPPKPKDTLMISRTPEVTCVVVDVSHEDPEVKFNWYVDGVEVHNAKTKPREEQYNSTYRVVSVLTVLHQDWLNGKEYKCKVSNKALPLPEEKTISKAKGQPREPQVYTLPPSRDELTKNQVSLTCLVKGFYPSDIAVEWESNGQPENNYKTTPPVLDSDGSFFLYSKLTVDKSRWQQGNVFSCSVMHEALHNHYTQESLSLSP
light: DIVMTQSPLSLPVTPGEPASISCQASESLVHSNRNTYLHWYLQKPGQSPQLLIYKVSNRFSGVPDRFSGSGSGTDFTLKISRVEAEDVGVYYCSQNTHVPPTFGQGTKVEIERTVAAPSVFIFPPSDEQLKSGTASVVCLLNNFYPREAKVQWKVDNALQSGNSQESVTEQDSKDSTYSLSSTLTLSKADYEKHKVYACEVTHQGLSSPVTKSFNRGEC
notes: Heterodimerized anti-glypican-3 IgG1 variant
B3: J300-z107/L210-k (antibody, human IgG4 S228P, kappa)
heavy: QVQLVQSGSELKKPGASVKVSCKASGYTFTDNNMDWVRQAPGQGLEWMGDINTRSGGSIYNEEFQDRVIMTVDKSTDTAYMELSSLRSEDTAVYHCARRKSYGYYLDEWGEGTLVTVSSASTKGPSVFPLAPCSRSTSESTAALGCLVKDYFPEPVTVSWNSGALTSGVHTFPAVLQSSGLYSLSSVVTVPSSSLGTQTYTCNVDHKPSNTKVDKRVESKYGPPCPPCPAPEFLGGPSVFLFPPKPKDTLMISRTPEVTCVVVDVSQEDPEVQFNWYVDGVEVHNAKTKPREEQYNSTYRVVSVLTVLHQDWLNGKEYKCKVSNKGLPSSIEKTISKAKGQPREPQVYTLPPSQEEMTKNQVSLTCLVKGFYPSDIAVEWESNGQPENNYKTTPPVLDSDGSFFLYSKLTVDKSRWQEGNVFSCSVMHEALHNRYTQESLSLSP
light: DIQMTQSPSSLSASVGDRVTITCKASRNIERNLAWYQQKPGQAPELLIYSASRKESGVPDRFSGSRYGTDFTLTISSLQPEDIATYYCQQYSSPPLTFGGGTKVEIKRTVAAPSVFIFPPSDEQLKSGTASVVCLLNNFYPREAKVQWKVDNALQSGNSQESVTEQDSKDSTYSLSSTLTLSKADYEKHKVYACEVTHQGLSSPVTKSFNRGEC
notes: z107 carries H435R; also called homomeric antibody against FX

Assays:
[1] = molecular target: T1, FcγRIIIa extracellular domain with C-terminal His tag (human, UniProt P08637 17-208); experiment: SPR (Biacore), ratio of KD values for FcγRIIIa
T1 construct: extracellular domain; also called FcgRIIIa; CD16A

[2] = molecular target: T1, FcγRIIIa extracellular domain with …; experiment: SPR (Biacore), ratio of KD values for FcγRIIIa; remark: listed apart in the source
Experimental: (§1) Analysis of interaction between objective antibody and the FcγR was carried out using Biacore T100 (GE Healthcare). HBS-EP+ (GE Healthcare) was used as the running buffer, and the measurement temperature was set to 25° C. Chips produced by immobilizing the antigen peptide by the amine coupling method to a Series S Sencor Chip CM5 (GE Healthcare), or alternatively, chips produced by allowing preliminarily biotinylated antigen peptides to interact with and immobilize onto a Series S Sensor Chip SA (certified) (GE Healthcare) were used. Antibodies of interest were captured onto an antigen peptide-immobilized chip, and allowed to interact to each FcγR diluted with running buffer. To regenerate and repeatedly use the chip, the antibodies captured on the chip were washed off by reacting 10 mM glycine-HCl, pH 1.5.

[3] = molecular target: T1, FcγRIIIa extracellular domain with …; experiment: SPR (Biacore), ratio of KD values for FcγRIIIa; remark: listed apart in the source
Excerpt: (§2) First, it was considered which H chain should be introduced with Y296W. GpH7-TA52 (SEQ ID NO: 44) resulting from the introduction of the mutation Y296W into GpH7-TA7 was constructed, and expressed and prepared in combination with GpH7-B78 according to the method described in Reference Example 1. Furthermore, GpH7-TA58 (SEQ ID NO: 45) resulting from the introduction of Y296W into GpH7-B78 was constructed, and expressed and prepared in combination with GpH7-TA22 according to the method described in Reference Example 1. To assess the effects of combinations with Y296W, the prepared antibodies were compared for the FcγRIIIa-binding activity according to the method described in Reference Example 2 (Table 16).
as §1

[4] = molecular target: T1, FcγRIIIa extracellular domain with …; experiment: SPR (Biacore), antibody captured, FcγRIIIa as analyte, 1:1 Langmuir kinetic fit
Summary of the method: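 Biacore T100 at 25° C in HBS-EP+; antibodies captured on antigen-peptide chips (amine-coupled CM5 or biotinylated peptide on SA), with FcγR in running buffer flowed over.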

[5] = molecular target: T1, FcγRIIIa extracellular domain with …; experiment: as above; remark: listed apart in the source
Experimental: as §1
(§3) The FcγR-binding activity of each antibody was assessed primarily using as an indicator the FcγR-binding activity and dissociation constant for FcγR.

[6] = molecular target: T1, FcγRIIIa extracellular domain with …; experiment: as above; remark: listed apart in the source
Excerpt: as §2, §1, §3

[7] = molecular target: T1, FcγRIIIa extracellular domain with …; experiment: SPR (Biacore), ratio of KD values for FcγRIIIa; remark: listed apart in the source
Excerpt: (§4) Then, GpH7-TA54 (SEQ ID NO: 46) resulting from the introduction of Y296W into GpH7-TA22 was constructed, and expressed and prepared in combination with GpH7-B78 according to the method described in Reference Example 1. Furthermore, GpH7-TA58 (SEQ ID NO: 45) resulting from the introduction of Y296W into GpH7-B78 was constructed, and expressed and prepared in combination with GpH7-TA22 according to the method described in Reference Example 1. To assess the effect of combination with Y296W, the prepared antibodies were compared for the FcγRIIIa-binding activity according to the method described in Reference Example 2 (Table 17).
as §1

[8] = molecular target: T1, FcγRIIIa extracellular domain with …; experiment: SPR (Biacore), antibody captured, FcγRIIIa as analyte, 1:1 Langmuir kinetic fit; remark: listed apart in the source
Excerpt: as §4, §1, §3

[9] = molecular target: T2, Protein A (UniProt P38507 37-327); experiment: rProtein A Sepharose column, stepwise pH elution; fractions analysed by cation exchange chromatography
T2 construct: bought resin; construct not described; also called rProtein A Sepharose Fast Flow

T1 sequence (P08637 17-208): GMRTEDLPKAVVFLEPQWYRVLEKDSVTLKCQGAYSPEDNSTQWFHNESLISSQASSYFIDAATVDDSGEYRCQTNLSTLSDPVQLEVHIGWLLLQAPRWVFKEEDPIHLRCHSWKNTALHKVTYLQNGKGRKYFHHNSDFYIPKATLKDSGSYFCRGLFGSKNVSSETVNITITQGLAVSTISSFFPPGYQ

Row | Binder | KD ratio 1 (KD of GpH7-G1d/GpL16-k0 divided by KD of the antibody) [1] [fold] | KD ratio 2 (KD of GpH7-A5/GpH7-B3/GpL16-k0 divided by KD of the antibody) [1] [fold] | KD ratio (KD of GpH7-TA7/GpH7-B78/GpL16-k0 divided by KD of the antibody) [2] [fold] | KD ratio (KD of GpH7-TA7/GpH7-B78/GpL16-k0 divided by KD of the antibody) [3] [fold] | Kd [4] [nM] | Kd [5] [nM] | Kd [6] [nM] | KD ratio (KD of GpH7-TA22/GpH7-B78/GpL16-k0 divided by KD of the antibody) [7] [fold] | Kd [8] [nM] | binding result [9]
1 | B1 | 261 | 347 | 1 | 1 | 4.7 | 4.1 | 4.1 | – | – | –
2 | B2 | – | – | 3.2 | – | – | 1.3 | – | 1 | 1.3 | –
3 | B3 | – | – | – | – | – | – | – | – | – | no binding
